US5618675A, “Methods and compositions for detecting lipopolysaccharides using CAP18 fragments” (Panorama Research, Inc., dated 1997)

Legend:
RAW 264.7 cells = type: cell-based, murine; conditions: LPS-induced (2.5 ng/ml LPS in FIG. 6B)
Experimental: From the sequence of the CAP18 cDNA, it was apparent that the putative N-terminal peptide of CAP18 was in fact an internal fragment of the CAP18 protein. We therefore tried to reconfirm the original protein sequence. Neutrophil-derived heparin bound cationic proteins were prepared as described above and applied to a C18 reverse phase HPLC (FIG. 1). We sequenced the major peaks. Peaks at fractions 14.5 and 15.2 correspond to defensins MCP1 and MCP2 (Territo et al. (1989) J. Clin. Invest. 84:2017-2019), respectively. Fraction 25.8 is macrophage related protein 14 (MRP14) (Odink et al. (1987) Nature 330:80-82). The fraction at 20.3 minutes corresponds to a fragment of CAP18 of approximately 4-5 kD. […] The murine macrophage cell line RAW 264.7 (obtained from ATCC) and thioglycolate-elicited murine peritoneal exudate cells are used to produce RNI. Cells are cultured at 1×10^6 /ml. in RPMI-1640 +2.5% FCS in 24 well plates in the presence or absence of different concentrations of LPS or murine rlFNγ. After 24 hr. incubation at 37° C. the cell free supernatant is collected and tested for the presence of RNI. Accumulation of nitrite in the medium is measured by a colorimetric assay based on the Griess reaction (Green et al. (1982) Anal. Biochem. 126:11) using sodium nitrite as standards. Sample (50 μl) is mixed with 50 μl of Griess reagent (1% sulfanilamide, 0.1% naphthalene diamine dihydrochloride, 2.5% H3 PO4) and after 10 min. at room temperature absorbance is read at 570 nm.

Salmonella minnesota Re = test: Antibacterial CFU assay; conditions: FIG. 6C
[1] = system: thioglycolate-stimulated murine peritoneal macrophages; test: LPS-induced tissue factor generation by macrophages; type: cell-based; conditions: peptide 1 μg/ml; 6 hr; FIG. 12
Experimental: […] Cells were cultured for 6 hours prior to assay of tissue factor by clotting assay.
[…] Production of tissue factor after 6 hr. was measured by clotting assay. […] In the absence of LPS no tissue factor is synthesized by these cells.

Salmonella typhimurium = test: Antibacterial CFU assay
[2] = system: Salmonella minnesota ReLPS sensitized sheep erythrocytes; test: LPS hemagglutination assay (MAC); type: binding
Experimental: For hemagglutination assays, erythrocytes were sensitized with LPS as follows. One ml of 1% erythrocyte suspension (human 0 type, C3H/HeN mouse or sheep) was mixed with 0.2 ml of LPS solution and incubated at 37° C. for 30 min, followed by washing with phosphate buffered saline (PBS), and then the concentration of suspension was adjusted to 1.0%. In the case of S-LPS, the solution was heated at 100° C. for 1 hour before sensitization of erythrocytes. […] Activity of CAP was expressed as a minimum agglutinating concentration (MAC) of CAP. According to the method of Kirikae et al. (1986) Microbiol. Immunol. 30:269-274, 50 μl of 2-fold serial dilution of Re-LPS was added to 50 μl of 1.0% rabbit erythrocyte suspension, and incubated at 37° C. for 3, hour. Minimum agglutinating concentration of Re-LPS was expressed as 1 HA unit.

[3] = Anti-coagulant activity of human RNIP (preliminary studies); type: biochemical
human mononuclear cells = test: LPS-induced tissue factor by human mononuclear cells; type: cell-based; conditions: for Δ Units (%): LPS alone 100
Experimental: Human mononuclear cells were separated from citrated peripheral blood by centrifugation over Sodium-metrizoate-Ficoll (lymphocyte Separation Medium, Japan Antibody Institute, Gumma). The resulting mixed mononuclear cell suspension was washed 3 times with RPMI 1640 media. Cell suspension (1×10^6 /ml) was stimulated with LPS for 16 to 18 hr.
Veronal buffered saline (VBS) was added to the cell pellet, lysed by 3 cycles of freeze/thaw and sonicated for 10 sec with a hand-held sonicator microbe (Handy Sonic, model UR-20P, Tomy Seiko LTD, Tokyo). Tissue factor activity was tested in modified unactivated partial thromboplastin time (7). One tenth ml of cell lysate (1×10^6 /ml) was preincubated with mouse plasma at 37° C. for 3 min. Then 0.1 ml of 25 mM-CaCl2 which contains phospholipid was added to the mixture and clotting time was measured using a fibrometer (Bio Quest Division, Becton Dickinson, Cokeysville, USA). A standard curve obtained from serial two-fold dilutions of rabbit brain thromboplastic (Simplastin, Ono Pharmaceutical Co.) was used to transpose tissue factor activity into arbitrary tissue factor units (1 μg/ml) suspension of rabbit brain was assigned a value of 1,000 units).
The mean tissue factor units+standard error was determined from three to four samples. Student's t test for unpair data was used to determine the statistically significant differences. A two-tailed P value of <0.05 was considered significant.
S. minnesota SmoothLPS (2 μg/ml) was preincubated with equal volume of
each LPSbinding protein (28HA) at 37° C. for 45 minutes, and the
mixture was added to the cells and cultured for 16 hours.

[4] = system: galactosamine-sensitized mice; type: in vivo; conditions: CAP18 40 μg IP alone, no galactosamine, no Re-LPS
From the text: Galactosamine sensitizes mice to the lethal effects of LPS by a factor 1000 or more. CAP18 and LPS were mixed and injected IP into sensitized mice. CAP18 can neutralize the lethal effects of LPS in this model of endotoxemia (see Table 8).

[5] = system: wild-type smooth Proteus mirabilis; conditions: cited from earlier work
encapsulated E. coli = conditions: cited from earlier work
[6] = system: rough mutant strain of Proteus mirabilis; conditions: cited from earlier work
[7] = first experiment, LPS 0.1 μg/ml
[8] = second experiment, LPS 0.1 μg/ml

## 50-2: synthetic rabbit RNIP-derived fragment, amino acids 147-171 of SEQ ID NO:4 (same range printed as 50-1) (IKEKLKKIGQKIQGLLPKLAPRTDY)
RAW 264.7 cells
  Inhibition of LPS-induced RNI-IC50: 0.3 µg/mL
Salmonella minnesota Re
  anti-bacterial activity (CFU), words: not active
[1]
  inhibition of LPS induced tissue factor: fail to inhibit
Salmonella typhimurium; FIG. 6D
  anti-bacterial activity (CFU), words: not active
Salmonella typhimurium; FIG. 6F
  effect on CFU at high concentrations alone and in various combinations: No effect
[2]
  Hemagglutination MAC (minimum agglutinating concentration): > 125 µg/mL

## human RNIP: human RNIP polypeptide comprising amino acids 134 to 170 of SEQ ID NO:2, Merrifield solid phase synthesis (LLGDFFRKSKEKIGKEFKRIVQRIKDFLRNLVPRTES)
[3]
  anti-coagulant activity: lacks significant anti-coagulant activity

B1: CAP18: cationic protein obtained from rabbit granulocytes, calculated molecular weight 16.6 kD, SEQ ID NO:4 (protein)
chain: METHKHGPSLAWWSLLLLLLGLLMPPAIAQDLTYREAVLRAVDAFNQQSSEANLYRLLSMDPQQLEDAKPYTPQPVSFTVKETECPRTTWKLPEQCDFKEDGLVKRCVGTVTRYQAWDSFDIRCNRAQESPEPTGLRKRLRKFRNKIKEKLKKIGQKIQGLLPKLAPRTDY
Human mononuclear cells; [7]
  Inhibition (%): 30%
  Δ Units (%): 70%
Human mononuclear cells; first experiment, LPS 0.1 μg/ml, LPS alone 16.6
  Tissue Factor, figure in parentheses (relative to unstimulated = 1.0): 9.9
Human mononuclear cells; first experiment, LPS 0.1 μg/ml, LPS alone 17118
  Δ Units: 12001
Human mononuclear cells; first experiment, LPS 0.1 μg/ml, LPS alone 18214 ± 4192, RNIP 2 HA units, CAP-18 1 HA unit
  Tissue Factor: 13097 ± 1946 Units × 10^3 /3.6 × 10^4 cells
Human mononuclear cells; [8]
  Inhibition (%): 35%
  Δ Units (%): 65%
Human mononuclear cells; second experiment, LPS 0.1 μg/ml, LPS alone 14.7
  Tissue Factor, figure in parentheses (relative to unstimulated = 1.0): 9.9
Human mononuclear cells; second experiment, LPS 0.1 μg/ml, LPS alone 6726
  Δ Units: 4366
Human mononuclear cells; second experiment, LPS 0.1 μg/ml, LPS alone 7218 ± 264, HA units HP-1 4, HP-2 2, RNIP 2, CAP-18 1
  Tissue Factor: 4858 ± 1963 Units × 10^3 /3.6 × 10^4 cells
Human mononuclear cells; second experiment, no LPS
  Tissue Factor, figure in parentheses (relative to unstimulated = 1.0): 1.2
  Δ Units: 235
Human mononuclear cells; second experiment, no LPS, unstimulated 492 ± 75
  Tissue Factor: 583 ± 178 Units × 10^3 /3.6 × 10^4 cells
[4]
  Lethality (%) groups of 10 mice: 0%

B2: BPI55: holoprotein of bactericidal permeability increasing protein (BPI) (protein, UniProt P17213 32-487, looked up)
Bactericidal …: VNPGVVVRISQKGLDYASQQGTAALQKELKRIKIPDYSDSFKIKHLGKGHYSFYSMDIREFQLPSSQISMVPNVGLKFSISNANIKISGKWKAQKRFLKMSGNFDLSIEGMSISADLKLGSNPTSGKPTITCSSCSSHINSVHVHISKSKVGWLIQLFHKKIESALRNKMNSQVCEKVTNSVSSELQPYFQTLPVMTKIDSVAGINYGLVAPPATTAETLDVQMKGEFYSENHHNPPPFAPPVMEFPAAHDRMVYLGLSDYFFNTAGLVYQEAGVLKMTLRDDMIPKESKFRLTTKFFGTFLPEVAKKFPNMKIQIHVSASTPPHLSVQPTGLTFYPAVDVQAFAVLPNSSLASLFLIGMHTTGSMEVSAESNRLVGELKLDRLLLELKHSNIGPFPVELLQDIMNYIVPILVLPRVNEKLQKGFPLPTPARVQLYNVVLQPHQNFLLFGADVVYK
[5]
  growth inhibition: only the rBPI23 inhibited growth
Encapsulated E. coli
  growth inhibitory activity, reduction over control: about 100 fold
[6]
  growth inhibition: inhibited the growth
